Experimental findings from the supplement of paper PMC10567573 are described below.

This data set can be described thus: protein stability index of a GFP-peptide fusion (GPS, HEK-293T) (PSI 1-6); higher = more stable. The conditions noted are these: c terminus: a fixed tail appended.

± gives the standard deviation.
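Note: 24-mer peptide tiles fused after GFP, lentivirally expressed, FACS-sorted into six equal bins by GFP/DsRed ratio, decoded by Illumina sequencing, PSI is the read-weighted mean bin number.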

Sequence LHLAAQGRHAQTVETLLRHGAHIN [RIPK4] registered a protein stability index (treatment: DMSO) of 2.4 ± 0.31 and a protein stability index (treatment: MLN4924 1 uM, 8 h) of 2.98 ± 0.51.
In turn, LISKGANVNRTTANNDHTVLSLAC [ANKRD17] showed a protein stability index (treatment: DMSO) of 2.82 ± 0.22 and a protein stability index (treatment: MLN4924 1 uM, 8 h) of 2.81 ± 0.27.
Taken in the same sequence, the figures for LKAKLQMTEAALALSEQKAQDLGE [LRRC45] were 4.51 ± 0.36 and 4.57 ± 0.28.
The like results for LKIYNKREEDFPSLREYNDFLEEV [MNAT1] were, in that order, 3.19 ± 0.39 and 3.68 ± 0.72.
On to LKRPVNVPFDIFTEEVKFYQLGEE [KCNA4], for which the protein stability index is 3.01 ± 0.27 (treatment: DMSO) and 3.27 ± 0.37 (treatment: MLN4924 1 uM, 8 h).
The like results for LLAHRLRRWHKSRLLQASGGGLTG [PCDHGA10] were, in that order, 2.52 ± 0.47 and 2.07 ± 0.35.
The like results for LLCWSVWWALSTCGYFQVVNYTQG [SLC19A2] were, in that order, 3.41 ± 0.59 and 3.61 ± 0.29.
Turning to LLDEEEALAKKFIDKNTQLTLQVY [TRIM14], the protein stability index is 2.53 ± 0.42 (treatment: DMSO) and 2.72 ± 0.34 (treatment: MLN4924 1 uM, 8 h).
As for LLEDDSDEEEDFFLRGPSGPRFGP [VAMP4], the protein stability index is, setting by setting: (treatment: DMSO) 3.97 ± 0.28; (treatment: MLN4924 1 uM, 8 h) 4.04 ± 0.39.
Taken in the same sequence, the figures for LLEDPLCADVILVLQERVRIFAHK [RHOBTB2] were 2.21 ± 0.21 and 2.5 ± 0.25.
Consider LLHSRNEGVATYAAAVLFRMSEDK [CTNNB1], for which the protein stability index was determined as 2.9 ± 0.36 (treatment: DMSO) and 3.22 ± 0.087 (treatment: MLN4924 1 uM, 8 h).
The like results for LLISCAVSYRGAWWYRNCHYANLN [TNXB] were, in that order, 2.97 ± 0.19 and 2.99 ± 0.72.
Consider LLKKKPPQQQHHKAKRNRTCRPPS [ANKRD17], for which the protein stability index by setting is: (treatment: DMSO) 3.93 ± 0.22; (treatment: MLN4924 1 uM, 8 h) 4 ± 0.29.
As to LLPNPYQQDFLGLPEELRRLSGLS [C22orf15], the protein stability index (treatment: DMSO) was 2.91 ± 0.17 and the protein stability index (treatment: MLN4924 1 uM, 8 h) was determined as 2.91 ± 0.34.
The like results for LLPQERPLMQGPRTRPRKPIRCGE [KLHL20] were, in that order, 3.71 ± 0.35 and 3.98 ± 0.084.
With LLQGAGLDVERWLKPAMTQAQDEV [FCHSD1], the protein stability index (treatment: DMSO) was determined as 3.6 ± 0.28 and the protein stability index (treatment: MLN4924 1 uM, 8 h) amounted to 3.54 ± 0.26.
Taken in the same sequence, the figures for LLTGQCDFGSNCRFSHMSERDLQE [ZMAT5] were 2.67 ± 0.21 and 2.78 ± 0.17.
Taken in the same sequence, the figures for LNDIFHLLKSHTNVLSVNLPDNFT [TPH1] were 2.35 ± 0.32 and 2.05 ± 0.41.
The like results for LNLGPALSAALASSQKQHSFTSSD [C8orf76] were, in that order, 3.31 ± 0.31 and 3.35 ± 0.19.
As to LNVQKTVDYTGQAKAQVRKAVQYE [STX11], the protein stability index is, setting by setting: (treatment: DMSO) 3.99 ± 0.11; (treatment: MLN4924 1 uM, 8 h) 4.09 ± 0.19.
Taken in the same sequence, the figures for LPDPNNYYHRRNEMTTTDDLDFKH [CPXM2] were 4.55 ± 0.23 and 4.7 ± 0.45.
As to LPIIQSNQVSSNSWGIAGETELAL [DLC1], the protein stability index by setting is: (treatment: DMSO) 3.52 ± 0.48; (treatment: MLN4924 1 uM, 8 h) 3.63 ± 0.2.
The like results for LPLMDLCRRSVRLALGRERLGEIH [SPSB1] were, in that order, 2.56 ± 0.28 and 2.42 ± 0.29.
The like results for LPPPCAALWCSGHLNGHAMCQTKH [ADAMTS4] were, in that order, 3.13 ± 0.24 and 3.17 ± 0.3.
Turning to LPPPDPNPPRAEFNYSVGFKDLNE [APBB1IP], the protein stability index runs as follows: (treatment: DMSO) 4.42 ± 0.23; (treatment: MLN4924 1 uM, 8 h) 4.36 ± 0.075.
Taken in the same sequence, the figures for LQCLQALYVDSLFFLRGRLDQLLR [PRAME] were 2.09 ± 0.057 and 2.2 ± 0.61.
Taken in the same sequence, the figures for LQGALDLLAVLCVDGSGRARQAAC [ZSWIM9] were 2.2 ± 0.27 and 2.02 ± 0.18.
Taken in the same sequence, the figures for LQLETVLEGVVSQIDAVGSKLKML [PKD2L1] were 2.37 ± 0.42 and 2.37 ± 0.11.
Turning to LQQDFQNIQETHRLYRLKLEELTK [TMEM120A], the protein stability index runs as follows: (treatment: DMSO) 3.3 ± 0.38; (treatment: MLN4924 1 uM, 8 h) 3.37 ± 0.28.
LRAESDFEQLPDDVAISANIADIE [NCF4]: the protein stability index runs as follows: (treatment: DMSO) 4.66 ± 0.28; (treatment: MLN4924 1 uM, 8 h) 5.21 ± 0.19.
Taken in the same sequence, the figures for LRASGSLCGPHAKAPYLCEATHEP were 2.84 ± 0.22 and 3.1 ± 0.27.
Take LRDEHRCASKYGRDWERYTAAVPY [DHCR7]: the protein stability index runs as follows: (treatment: DMSO) 2.67 ± 0.12; (treatment: MLN4924 1 uM, 8 h) 2.92 ± 0.2.
The like results for LRLCAWGLASWPLARGIHVAGILS [POMT2] were, in that order, 2.3 ± 0.26 and 2.22 ± 0.2.
Consider LRLEWETQQELRKIREKEEWIKLD [IQUB], for which the protein stability index is, setting by setting: (treatment: DMSO) 3.12 ± 0.62; (treatment: MLN4924 1 uM, 8 h) 3.44 ± 0.63.
Turning to LRLYKHNSQALLLHSSILTCTLLL [MFSD9], the protein stability index reads like this: (treatment: DMSO) 2.74 ± 0.6; (treatment: MLN4924 1 uM, 8 h) 2.88 ± 0.67.
As to LRQLVESDINSLRRILDELTLCRS [KRT33B], the protein stability index amounted to 2.31 ± 0.14 (treatment: DMSO) and 2.41 ± 0.15 (treatment: MLN4924 1 uM, 8 h).
Taken in the same sequence, the figures for LSFATRFHRLDEPPHICWDETHFG [POMT2] were 2.25 ± 0.29 and 2.25 ± 0.26.
Regarding LSGVDLELVGSGYRMSLVKRRFAT [FCHO1], the protein stability index runs as follows: (treatment: DMSO) 2.33 ± 0.2; (treatment: MLN4924 1 uM, 8 h) 2.37 ± 0.18.
The like results for LSRYLIEPCGPGKSKLTYMCRVDL [DLC1] were, in that order, 2.99 ± 0.73 and 3.2 ± 1.3.
Taken in the same sequence, the figures for LSSPEFSELCIWLGSQIKSLCNLE [FAM98B] were 2.17 ± 0.81 and 2.76 ± 0.82.
Regarding LSVLPQLEFKLKSNDNEERLQVVK [PDS5B], the protein stability index by setting is: (treatment: DMSO) 3.77 ± 0.11; (treatment: MLN4924 1 uM, 8 h) 3.7 ± 0.25.
Taken in the same sequence, the figures for LSVQQPTALALEPDAIRSRSNTLR [PCDHGC5] were 4.43 ± 0.17 and 4.56 ± 0.19.
For LSWELLDSHLGGNARGMGIRSPRP [CTBP1-DT], the protein stability index worked out at 3.18 ± 0.46 (treatment: DMSO) and 3.18 ± 0.3 (treatment: MLN4924 1 uM, 8 h).
Taken in the same sequence, the figures for LTLVLVASVLLQAVLYPRFMGTIS [CD207] were 2.99 ± 0.28 and 3.25 ± 0.45.
The like results for LTQKKPFADEKNILHIMVKVVKGH [RIPK4] were, in that order, 2.01 ± 0.18 and 1.79 ± 0.48.
Taken in the same sequence, the figures for LVHSAVDVPTIQEKVNEGKYRSYE [ZMYND11] were 4.47 ± 0.3 and 4.32 ± 0.2.
LVPDASKQRLMENTEDWRPRPGTG [PDLIM7]: the protein stability index runs as follows: (treatment: DMSO) 4.47 ± 0.2; (treatment: MLN4924 1 uM, 8 h) 4.53 ± 0.32.
On to LVQLRNMVQQIQENSVEFEACLVA [TRIM9], for which the protein stability index runs as follows: (treatment: DMSO) 2.25 ± 0.1; (treatment: MLN4924 1 uM, 8 h) 2.54 ± 0.37.
Taken in the same sequence, the figures for LVVFAVLGFKANIMNEKCVVENAE [SLC6A17] were 2.97 ± 0.32 and 2.82 ± 0.39.
The sequence LVVNIDNAKLASDDFRSKYQTEQS [KRT34] came in with a protein stability index (treatment: DMSO) of 3.65 ± 0.2 and a protein stability index (treatment: MLN4924 1 uM, 8 h) of 3.62 ± 0.2.
The like results for LVYENFYADFGPLNLAMVYRYCCK [CDC14A] were, in that order, 2.8 ± 0.27 and 2.5 ± 0.55.
The like results for LWEAPPLGAGGGSLLPGAVEQPQP [NEK8] were, in that order, 4.42 ± 0.13 and 4.36 ± 0.15.
